Laboratory results: paper doi:10.1101/871707 (bioRxiv, 2019)

Molecular target: the molecule itself
Test: cryo-EM structure

B1: human SEMA6A soluble recombinant extracellular domain (receptor)
chain: GFPEDSEPISISHGNYTKQYPVFVGHKPGRNTTQRHRLDIQMIMIMNGTLYIAARDHIYTVDIDTSHTEEIYCSKKLTWKSRQADVDTCRMKGKHKDECHNFIKVLLKKNDDALFVCGTNAFNPSCRNYKMDTLEPFGDEFSGMARCPYDAKHANVALFADGKLYSATVTDFLAIDAVIYRSLGESPTLRTVKHDSKWLKEPYFVQAVDYGDYIYFFFREIAVEYNTMGKVVFPRVAQVCKNDMGGSQRVLEKQWTSFLKARLNCSVPGDSHFYFNILQAVTDVIRINGRDVVLATFSTPYNSIPGSAVCAYDMLDIASVFTGRFKEQKSPDSTWTPVPDERVPKPRPGCCAGSSSLERYATSNEFPDDTLNFIKTHPLMDEAVPSIFNRPWFLRTMVRYRLTKIAVDTAAGPYQNHTVVFLGSEKGIILKFLARIGNSGFLNDSLFLEEMSVYNSEKCSYDGVEDKRIMGMQLDRASSSLYVAFSTCVIKVPLGRCERHGKCKKTCIASRDPYCGWIKEGGACSHLSPNSRLTFEQDIERGNTDGLGDCHNSFVALNGHSSSLLPSTTTSDSTAQEGYESRGGMLDWKHLLDSPDSTDPLGAVSSHNHQDKKGVIRESYLKGHDQLVPVT
notes: also called SEMA6A rECD; recombinant SEMA6A ectodomain
stoichiometry N: 2
